Assay results taken from publication PMC5454376, “Molecular mechanism of Gαi activation by non-GPCR proteins with a Gα-Binding and Activating motif” (Nature Communications, 2017).

B1: Ric-8A: non-receptor GEF used as control (protein)
chain: TGEEDAVTEALRSFNREHSQSFTFDDAQQEDRKRLAKLLVSVLEQGLSPKHRVTWLQTIRILSRDRSCLDSFASRQSLHALACYADIAISEEPIPQPPDMDVLLESLKCLCNLVLSSPTAQMLAAEARLVVRLAERVGLYRKRSYPHEVQFFDLRLLFLLTALRTDVRQQLFQELHGVRLLTDALELTLGVAPKENPLVILPAQETERAMEILKVLFNITYDSVKREVDEEDAALYRYLGTLLRHCVMADAAGDRTEEFHGHTVNLLGNLPLKCLDVLLALELHEGSLEFMGVNMDVINALLAFLEKRLHQTHRLKECVAPVLSVLTECARMHRPARKFLKAQVLPPLRDVRTRPEVGDLLRNKLVRLMTHLDTDVKRVAAEFLFVLCSESVPRFIKYTGYGNAAGLLAARGLMAGGRPEGQYSEDEDTDTEEYREAKASINPVTGRVEEKPPNPMEGMTEEQKEHEAMKLVNMFDKLSR
modifications: left off: GST, end not stated, kept
notes: non-receptor GEF used as control
B2: GAIP: GAIP (also known as RGS19), a GAP used as control (protein)
chain: MPTPHEAEKQITGPEEADRPPSMSSHDTASPAAPSRNPCCLCWCCCCSCSWNQERRRAWQASRESKLQPLPSCEVCATPSPEEVQSWAQSFDKLMHSPAGRSVFRAFLRTEYSEENMLFWLACEELKAEANQHVVDEKARLIYEDYVSILSPKEVSLDSRVREGINKKMQEPSAHTFDDAQLQIYTLMHRDSYPRFLSSPTYRALLLQGPSQSSSEA
modifications: left off: GST, end not stated, kept
notes: GAIP (also known as RGS19), a GAP used as control
B3: CALNUC: GBA motif protein with calcium-binding EF hands (protein, UniProt Q02818 27-461, looked up)
Nucleobindin-1: VPLERGAPNKEETPATESPDTGLYYHRYLQEVIDVLETDGHFREKLQAANAEDIKSGKLSRELDFVSHHVRTKLDELKRQEVSRLRMLLKAKMDAEQDPNVQVDHLNLLKQFEHLDPQNQHTFEARDLELLIQTATRDLAQYDAAHHEEFKRYEMLKEHERRRYLESLGEEQRKEAERKLEEQQRRHREHPKVNVPGSQAQLKEVWEELDGLDPNRFNPKTFFILHDINSDGVLDEQELEALFTKELEKVYDPKNEEDDMREMEEERLRMREHVMKNVDTNQDRLVTLEEFLASTQRKEFGDTGEGWETVEMHPAYTEEELRRFEEELAAREAELNAKAQRLSQETEALGRSQGRLEAQKRELQQAVLHMEQRKQQQQQQQGHKAPAAHPEGQLKFHPDTDDVPVPAPAGDQKEVDTSEKKLLERLPEVEVPQHL

Tests used:
Gαi3-[ ] = test: Pull-down, nucleotide-free Gαi3; type: binding, rat; conditions: GST fusion on glutathione-agarose (GIV 1,671–1,755; Ric-8A 12–491), 4 °C, pH 8.1, immunoblot
Method: (§1) Preparation of nucleotide-free Gαi3 and pull-down assay
(§2) His-tagged rat Gαi3 cloned in a pET28b vector was purified from BL21(DE3) bacteria (Life Technologies) after isopropyl-[beta]-D-thiogalactoside (IPTG) induction. Nucleotide-free Gαi3 was prepared by promoting nucleotide release with high concentrations of ammonium sulfate in the presence of glycerol. For this, His-Gαi3 was run through a Superdex S75 column equilibrated with 20 mM Tris-HCl (pH 7.4), 20 mM NaCl, 1 mM MgCl2, 1 mM dithiothreitol (DTT), 10 μM GDP and 5% (v/v) glycerol. A volume of 200 μl of His-Gαi3 at ∼5 μM were loaded on a Sephadex G-25 column (10 ml) equilibrated with 1 M ammonium sulfate, 20% (v:v) glycerol (pH 6) and the protein eluted at room temperature with the same buffer. Protein-containing fractions were pooled (∼400–600 μl) and incubated overnight at 4 °C. […] After transfer to polyvinylidene difluoride (PVDF) membranes, GST-fused proteins were visualized by Ponceau S staining and His-Gαi3 detected by immunoblotting with mouse anti-polyHis-Tag primary antibodies (1:2,500, Sigma, H1029) and goat anti-mouse IRDye 800F(ab′)2 secondary antibodies (1:10,000, Li-Cor) using an Odyssey Infrared Imaging System (Li-Cor Biosciences). […]

Gαi3-[GDP] = test: Pull-down, GDP-loaded Gαi3; type: binding, rat; conditions: GST fusion on glutathione-agarose, 100 μM GDP, 4 °C, pH 8.1, immunoblot
Method: as §1, §2

Gαi3-[GTP] = test: Pull-down, GDP/AlF4^−-loaded Gαi3; type: binding, rat; conditions: GST fusion on glutathione-agarose, 4 °C, pH 8.1, immunoblot
Method: as §1, §2

Gαi3 N269D = test: Co-immunoprecipitation in HEK293T cells, Gαi3 N269D versus WT; type: binding; conditions: HEK293T lysates, FLAG-tagged Gαi3 N269D vs WT; GST-Ric-8A 1 μg added
Method: HEK293T cells (American Type Culture Collection) were grown at 37 °C in DMEM supplemented with 10% FBS, 100 U ml^−1 penicillin, 100 μg ml^−1 streptomycin, 1% L-glutamine and 5% CO2. DNA plasmids encoding for C-terminally 3xFLAG-tagged Gαi3 (ref. [25]) or an empty plasmid (p3xFLAG-CMV-14) were transfected using the calcium phosphate method in 10 cm dishes. The DNA amount for the Gαi3 N269D plasmid was threefold (12 μg) of that for Gαi3 WT (4 μg) to equalize their expression levels. Cells were collected 48 h after transfection by gently scrapping in PBS, centrifuged and resuspended in 1 ml of lysis buffer (20 mM HEPES (pH 7.2), 5 mM Mg(CH3COO)2, 125 mM K(CH3COO), 0.4% (v:v) Triton X-100, 1 mM DTT, 10 mM β-glycerophosphate and 0.5 mM Na3VO4 supplemented with a protease inhibitor cocktail (Sigma; catalogue #S8830)) and cleared (14,000g for 10 min) before use. Lysates were supplemented with 1 μg of purified GST-Ric-8A (12–491)[22] and 2 μg of mouse anti-FLAG antibody (Sigma F1804), and incubated for 4 h at 4 °C with rotation. BSA-blocked Protein G agarose beads (Thermo-Scientific) were added and tubes incubated for additional 90 min at 4 °C. Beads were washed four times (4.3 mM Na2HPO4, 1.4 mM KH2PO4, pH 7.4, 137 mM NaCl, 2.7 mM KCl, 0.1% (v/v) Tween 20, 10 mm MgCl2, 5 mm EDTA and 1 mm DTT) and immunoprecipitated proteins eluted by boiling in Laemmli sample buffer. […]

Gα = conditions: cited from earlier work
From the text: GBA proteins also differ from the non-receptor GEF Ric-8A. Although both Ric-8A and GBA proteins activate monomeric Gα instead of Gαβγ trimers, removal of the C terminus of Gα only abrogates Ric-8A action. This indicates a different mode of G-protein binding for Ric-8A that resembles how GPCR bind. […] We are confident about the similarity on which the model was built because of several lines of evidence presented in this manuscript and in previously published work. […] Second, sequence similarity with the KB-752 and rudimentary modeling allowed us to identify residues in the GBA motif of GIV ...

Gαi3 = conditions: GBA motif of CALNUC; cited from earlier work
From the text: The disordered nature of GIV-CT is intrinsic and not a consequence of the truncation of the protein at residue 1,660 since disorder is predicted for the C-terminal 330 residues of the GIV sequence, and larger fragments of GIV can also recapitulate G-protein binding and/or activation in a GBA motif-dependent manner. The ...

Molecule	binding to Gαi3-[ ] (Gαi3-[ ])	binding to Gαi3-[GDP] (Gαi3-[GDP])	binding to Gαi3-[GTP] (Gαi3-[GTP])	co-immunoprecipitation with nucleotide-free-mimicking mutant compared with WT (Gαi3 N269D)	effect of removal of the C terminus of Gα (Gα)	Gαi3 binding, calcium dependence (Gαi3)
B1	binds preferentially	weaker binding	dissociation	binds more	abrogates	–
B2	–	not to Gαi3-[GDP]	binds exclusively	–	–	–
B3	–	–	–	–	–	only when the protein is not calcium-bound
